Test results taken from the supplement of paper PMC9112550, “Optimization of the antimicrobial peptide Bac7 by deep mutational scanning” (BMC Biology, 2022).

Test system: Escherichia coli TOP10
Test: shrunken log2 fold change of peptide-encoding DNA abundance (4.5 h post-induction vs induction); higher = less antimicrobial activity (less host growth inhibition)
Conditions: time post-induction: 4.5 h; library: site-saturation at positions 5, 18, 19, 20
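Also: peptides expressed intracellularly from a pBAD plasmid library in pooled LB shake-flask culture, induced with 0.3% L-arabinose, DNA abundance read by NGS, three biological replicates, DESeq2 with apeglm shrinkage.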

In order of falling “shrunken log2 fold change” value:
1. RRIRQRPPRLPRPRPRPPTIPRP  2.14
2. RRIRQRPPRLPRPRPRPPRFPRP  1.51
3. RRIRARPPRLPRPRPRPFWMPRP  1.14
4. RRIRGRPPRLPRPRPRPNMRPRP  1.08
5. RRIRMRPPRLPRPRPRPQAPPRP  0.718
6. RRIRGRPPRLPRPRPRPATKPRP  0.649
7. RRIRPRPPRLPRPRPRPECCPRP  0.526
8. RRIRRRPPRLPRPRPRPQRRPRP  0.482
9. RRIRLRPPRLPRPRPRPEQNPRP  0.41
10. RRIRFRPPRLPRPRPRPRQWPRP  0.39
11. RRIRQRPPRLPRPRPRPLPEPRP  0.39
12. RRIRNRPPRLPRPRPRPTQDPRP  0.387
13. RRIRGRPPRLPRPRPRPARYPRP  0.339
14. RRIRKRPPRLPRPRPRPQELPRP  0.329
15. RRIRWRPPRLPRPRPRPITKPRP  0.258
16. RRIRARPPRLPRPRPRPTKPPRP  0.24
17. RRIRLRPPRLPRPRPRPESAPRP  0.228
18. RRIRVRPPRLPRPRPRPTCSPRP  0.19
19. RRIRARPPRLPRPRPRPIRMPRP  0.183
20. RRIRSRPPRLPRPRPRPTEPPRP  0.161
21. RRIRVRPPRLPRPRPRPWLKPRP  0.151
22. RRIRPRPPRLPRPRPRPRQCPRP  0.126
23. RRIRSRPPRLPRPRPRPQRNPRP  0.104
24. RRIRLRPPRLPRPRPRPKHAPRP  0.0823
25. RRIRWRPPRLPRPRPRPTWHPRP  0.0819
26. RRIRGRPPRLPRPRPRPITGPRP  0.064
27. RRIRMRPPRLPRPRPRPLVNPRP  0.0639
28. RRIRKRPPRLPRPRPRPHCSPRP  0.063
29. RRIRHRPPRLPRPRPRPYAFPRP  0.0613
30. RRIRHRPPRLPRPRPRPMKEPRP  0.0572
31. RRIRPRPPRLPRPRPRPMMWPRP  0.0433
32. RRIRMRPPRLPRPRPRPSMGPRP  0.0383
33. RRIRGRPPRLPRPRPRPTWEPRP  0.031
34. RRIRWRPPRLPRPRPRPYRYPRP  0.0299
35. RRIRHRPPRLPRPRPRPEPNPRP  0.0235
36. RRIRPRPPRLPRPRPRPVWVPRP  0.0215
37. RRIRERPPRLPRPRPRPNDIPRP  0.0203
38. RRIRTRPPRLPRPRPRPEAFPRP  0.0195
39. RRIRTRPPRLPRPRPRPKWQPRP  0.0171
40. RRIRHRPPRLPRPRPRPWPMPRP  0.0159
41. RRIRGRPPRLPRPRPRPVHSPRP  0.0124
42. RRIRPRPPRLPRPRPRPQCRPRP  0.00385
43. RRIRYRPPRLPRPRPRPCYAPRP  -0.00203
44. RRIRTRPPRLPRPRPRPQVEPRP  -0.00619
45. RRIRGRPPRLPRPRPRPFQSPRP  -0.00674
46. RRIRIRPPRLPRPRPRPSRPPRP  -0.00676
47. RRIRHRPPRLPRPRPRPNRRPRP  -0.00884
48. RRIRLRPPRLPRPRPRPKKVPRP  -0.0117
49. RRIRQRPPRLPRPRPRPHDSPRP  -0.0135
50. RRIRQRPPRLPRPRPRPGNWPRP  -0.0235
51. RRIRIRPPRLPRPRPRPDVTPRP  -0.0322
52. RRIRIRPPRLPRPRPRPRRVPRP  -0.0339
53. RRIRHRPPRLPRPRPRPTVTPRP  -0.0378
54. RRIRERPPRLPRPRPRPCWQPRP  -0.0429
55. RRIRERPPRLPRPRPRPCYIPRP  -0.0464
56. RRIRCRPPRLPRPRPRPHGDPRP  -0.0473
57. RRIRPRPPRLPRPRPRPWMKPRP  -0.0651
58. RRIRPRPPRLPRPRPRPFKVPRP  -0.0681
59. RRIRDRPPRLPRPRPRPGKFPRP  -0.0736
60. RRIRHRPPRLPRPRPRPNKTPRP  -0.0741
61. RRIRPRPPRLPRPRPRPGYTPRP  -0.0764
62. RRIRLRPPRLPRPRPRPYETPRP  -0.0853
63. RRIRCRPPRLPRPRPRPAYKPRP  -0.093
64. RRIRSRPPRLPRPRPRPIGPPRP  -0.0999
65. RRIRQRPPRLPRPRPRPKICPRP  -0.101
66. RRIRSRPPRLPRPRPRPFETPRP  -0.101
67. RRIRCRPPRLPRPRPRPLSKPRP  -0.103
68. RRIRMRPPRLPRPRPRPFGTPRP  -0.112
69. RRIRKRPPRLPRPRPRPYRCPRP  -0.12
70. RRIRWRPPRLPRPRPRPYNEPRP  -0.13
71. RRIRSRPPRLPRPRPRPQQKPRP  -0.138
72. RRIRQRPPRLPRPRPRPNNCPRP  -0.138
73. RRIRSRPPRLPRPRPRPFWNPRP  -0.139
74. RRIRVRPPRLPRPRPRPKSDPRP  -0.142
75. RRIRSRPPRLPRPRPRPMCFPRP  -0.149
76. RRIRFRPPRLPRPRPRPFPCPRP  -0.151
77. RRIRCRPPRLPRPRPRPSKVPRP  -0.156
78. RRIRQRPPRLPRPRPRPEYEPRP  -0.157
79. RRIRDRPPRLPRPRPRPHYSPRP  -0.16
80. RRIRTRPPRLPRPRPRPLWKPRP  -0.178
81. RRIRRRPPRLPRPRPRPFWCPRP  -0.18
82. RRIRLRPPRLPRPRPRPYQMPRP  -0.188
83. RRIRFRPPRLPRPRPRPWHIPRP  -0.213
84. RRIRYRPPRLPRPRPRPQVEPRP  -0.218
85. RRIRYRPPRLPRPRPRPNHVPRP  -0.219
86. RRIRTRPPRLPRPRPRPGPDPRP  -0.228
87. RRIRGRPPRLPRPRPRPWCNPRP  -0.276
88. RRIRLRPPRLPRPRPRPKWNPRP  -0.299
89. RRIRYRPPRLPRPRPRPCNFPRP  -0.303
90. RRIRRRPPRLPRPRPRPHYTPRP  -0.313
91. RRIRIRPPRLPRPRPRPQQNPRP  -0.318
92. RRIRVRPPRLPRPRPRPDCLPRP  -0.318
93. RRIRWRPPRLPRPRPRPMMYPRP  -0.339
94. RRIRTRPPRLPRPRPRPNKHPRP  -0.448
95. RRIRYRPPRLPRPRPRPTAHPRP  -0.466
96. RRIRSRPPRLPRPRPRPQHHPRP  -0.466
97. RRIRERPPRLPRPRPRPKKIPRP  -0.515
98. RRIRLRPPRLPRPRPRPHIKPRP  -0.528
99. RRIRYRPPRLPRPRPRPRHMPRP  -0.55
100. RRIRTRPPRLPRPRPRPKMNPRP  -0.558
101. RRIRSRPPRLPRPRPRPFYIPRP  -0.608
102. RRIRERPPRLPRPRPRPAILPRP  -0.629
103. RRIRRRPPRLPRPRPRPYDAPRP  -0.635
104. RRIRDRPPRLPRPRPRPIHHPRP  -0.649
105. RRIRFRPPRLPRPRPRPMNKPRP  -0.65
106. RRIRIRPPRLPRPRPRPLCDPRP  -0.655
107. RRIRKRPPRLPRPRPRPYNYPRP  -0.898
108. RRIRIRPPRLPRPRPRPYQNPRP  -1.1
109. RRIRFRPPRLPRPRPRPNYNPRP  -1.12
